According to publication PMC9312987, “NMR Reveals Specific Tracts within the Intrinsically Disordered Regions of the SARS-CoV-2 Nucleocapsid Protein Involved in RNA Encountering”:

Molecular target: N protein NTR (IDR1-NTD-IDR2) (SARS-CoV-2, UniProt P0DTC9 1-248)
Experiment: EMSA
Settings: protein: recombinant; tags: none stated; label: 5'-32P for EMSA; unlabeled for NMR; hairpin (stem loop)

GGGUGUGGCUGUCACUCGGCUGCAUGCUUAGUGCACUCACGCCC (structured_RNA) [5_SL4 (SL4 RNA)]
binding result: binds
